Measurements from US20180318382 (published 2018).
Like-named read-outs stand apart in the source and are kept apart here. Values belong to the binder of their own block, whether it stands above or below them. Where no end group is shown, it is not given here.

Experiments:
NHERF-1 PDZ2 = target: T1, NHERF-1 PDZ2 (human, UniProt O14745); assay: FP, competition
T1 chain: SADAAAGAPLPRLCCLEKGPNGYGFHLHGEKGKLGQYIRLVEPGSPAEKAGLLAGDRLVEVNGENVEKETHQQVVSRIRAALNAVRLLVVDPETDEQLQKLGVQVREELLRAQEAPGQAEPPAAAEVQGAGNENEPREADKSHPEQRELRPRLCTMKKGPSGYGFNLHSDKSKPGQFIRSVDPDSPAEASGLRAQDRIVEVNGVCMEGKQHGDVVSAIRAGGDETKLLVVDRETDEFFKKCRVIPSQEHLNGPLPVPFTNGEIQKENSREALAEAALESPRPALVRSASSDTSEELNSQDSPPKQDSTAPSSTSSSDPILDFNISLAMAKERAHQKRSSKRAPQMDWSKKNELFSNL

TIP-1 = target: T2, TIP-1 (human, UniProt O14907); assay: FP, competition
T2 chain: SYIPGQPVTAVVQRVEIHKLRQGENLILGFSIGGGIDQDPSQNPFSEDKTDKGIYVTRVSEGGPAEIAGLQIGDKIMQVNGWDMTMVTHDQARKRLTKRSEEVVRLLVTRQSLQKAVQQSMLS

NHERF-1 PDZ1 = target: T3, NHERF-1 PDZ1 (human, UniProt O14745); assay: FP, competition
T3 chain: T1 chain

CAL PDZ [1] = target: T4, CAL PDZ (human, UniProt Q9HD26); assay: FP, competition
CAL PDZ [2] = target: T4, CAL PDZ

- Ki (NHERF-1 PDZ2): > 5000 µM
- Ki (TIP-1): > 5000 µM
- Ki (NHERF-1 PDZ1): > 5000 µM
B2: ANSRLPTS[Ac-K]I (peptide)
chain: ANSRLPTSK(Ac)I

- Ki (CAL PDZ [1]): 1.17 µM
- Ki (NHERF-1 PDZ2): 208 µM
- Ki (TIP-1): 0.057 µM
- Ki (NHERF-1 PDZ1): 2.8 µM
B4: ANSRWQVTRV (peptide)
chain: ANSRWQVTRV

- Ki (NHERF-1 PDZ2): > 5000 µM
- Ki (TIP-1): > 5000 µM
- Ki (NHERF-1 PDZ1): > 5000 µM
B6: ANSRLPTS[K-AEBA]I (peptide)
chain: ANSRLPTSKI

- Ki (CAL PDZ [1]): 4.42 µM
- Ki (TIP-1): > 5000 µM
B8: Ac-LPVTRV (peptide)
chain: Ac-LPVTRV

Second part, the binder before the results:

B1: iCAL42 ANSRLPTSII (peptide)
chain: ANSRLPTSII
- Ki (NHERF-1 PDZ2): > 5000 µM
- Ki (TIP-1): > 5000 µM
- Ki (NHERF-1 PDZ1): > 5000 µM

B3: ANSRWQVTRV (second entry) (peptide)
chain: ANSRWQVTRV
- Ki (CAL PDZ [1]): 1.13 µM
- Ki (TIP-1): 0.057 µM
- Ki (NHERF-1 PDZ1): 2.8 µM

B5: Ac-WPVTRV (peptide)
chain: Ac-WPVTRV
- Ki (CAL PDZ [1]): 1.22 µM
- Ki (TIP-1): 0.258 µM

B7: kCAL01 (peptide)
chain: Ac-WQVTRV
- Ki (CAL PDZ [2]): ~1 µM
